Numbered stars: 1 amine (or outer) side, 2 acyl side, 3 side chain; on linkers, the order of the positions; unused ones are H or OH. Bridge positions count the residues as written; N and C are the ends. Side chains are listed from the residue outwards. Ends that are not written are not given here. * marks the point of attachment. C20 diacid = O=C(O)CCCCCCCCCCCCCCCCCCC(=O)*; γGlu = O=C(O)[C@H](CCC(=O)[*:2])N[*:1]
T1: human amylin receptor (amylin 3(a) receptor: human calcitonin receptor with RAMP-3) (human, UniProt P30988 25-474; O60896 24-148)
T1 construct: whole, on cells; also called hAmylin-R; hAmylinR
T1 sequence (looked up) 1: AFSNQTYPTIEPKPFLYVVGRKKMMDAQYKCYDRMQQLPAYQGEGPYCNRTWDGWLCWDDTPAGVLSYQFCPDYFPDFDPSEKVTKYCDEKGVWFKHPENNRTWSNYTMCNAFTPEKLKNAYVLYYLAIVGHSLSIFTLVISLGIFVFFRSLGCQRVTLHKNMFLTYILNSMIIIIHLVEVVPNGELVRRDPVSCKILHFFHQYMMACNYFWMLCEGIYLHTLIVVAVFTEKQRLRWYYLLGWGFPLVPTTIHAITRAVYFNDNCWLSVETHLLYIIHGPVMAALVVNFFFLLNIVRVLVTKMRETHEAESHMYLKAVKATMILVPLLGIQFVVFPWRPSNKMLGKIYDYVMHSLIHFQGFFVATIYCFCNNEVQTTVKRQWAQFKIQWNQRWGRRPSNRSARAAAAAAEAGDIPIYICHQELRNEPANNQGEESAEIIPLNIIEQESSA
T1 sequence (looked up) 2: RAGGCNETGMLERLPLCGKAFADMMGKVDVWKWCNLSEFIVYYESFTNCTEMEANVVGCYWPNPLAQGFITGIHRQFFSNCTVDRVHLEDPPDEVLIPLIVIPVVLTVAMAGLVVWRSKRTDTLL

B1: N^ε1-[(4S)-4-carboxy-4-(19-carboxynonadecanoylamino)butanoyl]-[Ala14,Arg17,Pro21,Pro27,His34]-h-amylin (peptide)
peptide: K([γGlu-C20 diacid])CNTATCATQRLAAFLRHSSPNFGAIPSSTNVGHNTY-NH2
modifications: disulfide 2-7; N-terminus assumed
SMILES: CC[C@H](C)[C@H](NC(=O)[C@H](C)NC(=O)CNC(=O)[C@H](Cc1ccccc1)NC(=O)[C@H](CC(N)=O)NC(=O)[C@@H]1CCCN1C(=O)[C@H](CO)NC(=O)[C@H](CO)NC(=O)[C@H](Cc1c[nH]cn1)NC(=O)[C@H](CCCNC(=N)N)NC(=O)[C@H](CC(C)C)NC(=O)[C@H](Cc1ccccc1)NC(=O)[C@H](C)NC(=O)[C@H](C)NC(=O)[C@H](CC(C)C)NC(=O)[C@H](CCCNC(=N)N)NC(=O)[C@H](CCC(N)=O)NC(=O)[C@@H](NC(=O)[C@H](C)NC(=O)[C@@H]1CSSC[C@H](NC(=O)[C@@H](N)CCCCNC(=O)CC[C@H](NC(=O)CCCCCCCCCCCCCCCCCCC(=O)O)C(=O)O)C(=O)N[C@@H](CC(N)=O)C(=O)N[C@@H]([C@@H](C)O)C(=O)N[C@@H](C)C(=O)N[C@@H]([C@@H](C)O)C(=O)N1)[C@@H](C)O)C(=O)N1CCC[C@H]1C(=O)N[C@@H](CO)C(=O)N[C@@H](CO)C(=O)N[C@H](C(=O)N[C@@H](CC(N)=O)C(=O)N[C@H](C(=O)NCC(=O)N[C@@H](Cc1c[nH]cn1)C(=O)N[C@@H](CC(N)=O)C(=O)N[C@H](C(=O)N[C@@H](Cc1ccc(O)cc1)C(N)=O)[C@@H](C)O)C(C)C)[C@@H](C)O
notes: also called 93; compound 93
B2: N^ε1-[(4S)-4-carboxy-4-(19-carboxynonadecanoylamino)butanoyl]-[Ala14,Arg17,Pro21,Pro27,Pro34]-h-amylin (peptide)
peptide: K([γGlu-C20 diacid])CNTATCATQRLAAFLRHSSPNFGAIPSSTNVGPNTY-NH2
modifications: disulfide 2-7; N-terminus assumed
SMILES: CC[C@H](C)[C@H](NC(=O)[C@H](C)NC(=O)CNC(=O)[C@H](Cc1ccccc1)NC(=O)[C@H](CC(N)=O)NC(=O)[C@@H]1CCCN1C(=O)[C@H](CO)NC(=O)[C@H](CO)NC(=O)[C@H](Cc1c[nH]cn1)NC(=O)[C@H](CCCNC(=N)N)NC(=O)[C@H](CC(C)C)NC(=O)[C@H](Cc1ccccc1)NC(=O)[C@H](C)NC(=O)[C@H](C)NC(=O)[C@H](CC(C)C)NC(=O)[C@H](CCCNC(=N)N)NC(=O)[C@H](CCC(N)=O)NC(=O)[C@@H](NC(=O)[C@H](C)NC(=O)[C@@H]1CSSC[C@H](NC(=O)[C@@H](N)CCCCNC(=O)CC[C@H](NC(=O)CCCCCCCCCCCCCCCCCCC(=O)O)C(=O)O)C(=O)N[C@@H](CC(N)=O)C(=O)N[C@@H]([C@@H](C)O)C(=O)N[C@@H](C)C(=O)N[C@@H]([C@@H](C)O)C(=O)N1)[C@@H](C)O)C(=O)N1CCC[C@H]1C(=O)N[C@@H](CO)C(=O)N[C@@H](CO)C(=O)N[C@H](C(=O)N[C@@H](CC(N)=O)C(=O)N[C@H](C(=O)NCC(=O)N1CCC[C@H]1C(=O)N[C@@H](CC(N)=O)C(=O)N[C@H](C(=O)N[C@@H](Cc1ccc(O)cc1)C(N)=O)[C@@H](C)O)C(C)C)[C@@H](C)O
notes: also called 94; compound 94
B3: N^ε1-[(4S)-4-carboxy-4-(19-carboxynonadecanoylamino)butanoyl]-[Arg14,Arg17,Pro21,Pro27,Pro31]-h-amylin (peptide)
peptide: K([γGlu-C20 diacid])CNTATCATQRLARFLRHSSPNFGAIPSSTPVGSNTY-NH2
modifications: disulfide 2-7; N-terminus assumed
SMILES: CC[C@H](C)[C@H](NC(=O)[C@H](C)NC(=O)CNC(=O)[C@H](Cc1ccccc1)NC(=O)[C@H](CC(N)=O)NC(=O)[C@@H]1CCCN1C(=O)[C@H](CO)NC(=O)[C@H](CO)NC(=O)[C@H](Cc1c[nH]cn1)NC(=O)[C@H](CCCNC(=N)N)NC(=O)[C@H](CC(C)C)NC(=O)[C@H](Cc1ccccc1)NC(=O)[C@H](CCCNC(=N)N)NC(=O)[C@H](C)NC(=O)[C@H](CC(C)C)NC(=O)[C@H](CCCNC(=N)N)NC(=O)[C@H](CCC(N)=O)NC(=O)[C@@H](NC(=O)[C@H](C)NC(=O)[C@@H]1CSSC[C@H](NC(=O)[C@@H](N)CCCCNC(=O)CC[C@H](NC(=O)CCCCCCCCCCCCCCCCCCC(=O)O)C(=O)O)C(=O)N[C@@H](CC(N)=O)C(=O)N[C@@H]([C@@H](C)O)C(=O)N[C@@H](C)C(=O)N[C@@H]([C@@H](C)O)C(=O)N1)[C@@H](C)O)C(=O)N1CCC[C@H]1C(=O)N[C@@H](CO)C(=O)N[C@@H](CO)C(=O)N[C@H](C(=O)N1CCC[C@H]1C(=O)N[C@H](C(=O)NCC(=O)N[C@@H](CO)C(=O)N[C@@H](CC(N)=O)C(=O)N[C@H](C(=O)N[C@@H](Cc1ccc(O)cc1)C(N)=O)[C@@H](C)O)C(C)C)[C@@H](C)O
notes: also called 63; compound 63
B4: N^ε1-[(4S)-4-carboxy-4-(19-carboxynonadecanoylamino)butanoyl]-[Arg14,Arg17,Pro21,Pro27,Pro34]-h-amylin (peptide)
peptide: K([γGlu-C20 diacid])CNTATCATQRLARFLRHSSPNFGAIPSSTNVGPNTY-NH2
modifications: disulfide 2-7; N-terminus assumed
SMILES: CC[C@H](C)[C@H](NC(=O)[C@H](C)NC(=O)CNC(=O)[C@H](Cc1ccccc1)NC(=O)[C@H](CC(N)=O)NC(=O)[C@@H]1CCCN1C(=O)[C@H](CO)NC(=O)[C@H](CO)NC(=O)[C@H](Cc1c[nH]cn1)NC(=O)[C@H](CCCNC(=N)N)NC(=O)[C@H](CC(C)C)NC(=O)[C@H](Cc1ccccc1)NC(=O)[C@H](CCCNC(=N)N)NC(=O)[C@H](C)NC(=O)[C@H](CC(C)C)NC(=O)[C@H](CCCNC(=N)N)NC(=O)[C@H](CCC(N)=O)NC(=O)[C@@H](NC(=O)[C@H](C)NC(=O)[C@@H]1CSSC[C@H](NC(=O)[C@@H](N)CCCCNC(=O)CC[C@H](NC(=O)CCCCCCCCCCCCCCCCCCC(=O)O)C(=O)O)C(=O)N[C@@H](CC(N)=O)C(=O)N[C@@H]([C@@H](C)O)C(=O)N[C@@H](C)C(=O)N[C@@H]([C@@H](C)O)C(=O)N1)[C@@H](C)O)C(=O)N1CCC[C@H]1C(=O)N[C@@H](CO)C(=O)N[C@@H](CO)C(=O)N[C@H](C(=O)N[C@@H](CC(N)=O)C(=O)N[C@H](C(=O)NCC(=O)N1CCC[C@H]1C(=O)N[C@@H](CC(N)=O)C(=O)N[C@H](C(=O)N[C@@H](Cc1ccc(O)cc1)C(N)=O)[C@@H](C)O)C(C)C)[C@@H](C)O
notes: also called 65; compound 65
B5: N^ε1-[(4S)-4-carboxy-4-(19-carboxynonadecanoylamino)butanoyl]-[Arg14,Arg17,Pro21,Pro27]-h-amylin (peptide)
peptide: K([γGlu-C20 diacid])CNTATCATQRLARFLRHSSPNFGAIPSSTNVGSNTY-NH2
modifications: disulfide 2-7; N-terminus assumed
SMILES: CC[C@H](C)[C@H](NC(=O)[C@H](C)NC(=O)CNC(=O)[C@H](Cc1ccccc1)NC(=O)[C@H](CC(N)=O)NC(=O)[C@@H]1CCCN1C(=O)[C@H](CO)NC(=O)[C@H](CO)NC(=O)[C@H](Cc1c[nH]cn1)NC(=O)[C@H](CCCNC(=N)N)NC(=O)[C@H](CC(C)C)NC(=O)[C@H](Cc1ccccc1)NC(=O)[C@H](CCCNC(=N)N)NC(=O)[C@H](C)NC(=O)[C@H](CC(C)C)NC(=O)[C@H](CCCNC(=N)N)NC(=O)[C@H](CCC(N)=O)NC(=O)[C@@H](NC(=O)[C@H](C)NC(=O)[C@@H]1CSSC[C@H](NC(=O)[C@@H](N)CCCCNC(=O)CC[C@H](NC(=O)CCCCCCCCCCCCCCCCCCC(=O)O)C(=O)O)C(=O)N[C@@H](CC(N)=O)C(=O)N[C@@H]([C@@H](C)O)C(=O)N[C@@H](C)C(=O)N[C@@H]([C@@H](C)O)C(=O)N1)[C@@H](C)O)C(=O)N1CCC[C@H]1C(=O)N[C@@H](CO)C(=O)N[C@@H](CO)C(=O)N[C@H](C(=O)N[C@@H](CC(N)=O)C(=O)N[C@H](C(=O)NCC(=O)N[C@@H](CO)C(=O)N[C@@H](CC(N)=O)C(=O)N[C@H](C(=O)N[C@@H](Cc1ccc(O)cc1)C(N)=O)[C@@H](C)O)C(C)C)[C@@H](C)O
notes: also called 83; compound 83
B6: N^ε1-[(4S)-4-carboxy-4-(19-carboxynonadecanoylamino)butanoyl]-[Arg17,Pro21,Pro27,Arg34]-h-amylin (peptide)
peptide: K([γGlu-C20 diacid])CNTATCATQRLANFLRHSSPNFGAIPSSTNVGRNTY-NH2
modifications: disulfide 2-7; N-terminus assumed
SMILES: CC[C@H](C)[C@H](NC(=O)[C@H](C)NC(=O)CNC(=O)[C@H](Cc1ccccc1)NC(=O)[C@H](CC(N)=O)NC(=O)[C@@H]1CCCN1C(=O)[C@H](CO)NC(=O)[C@H](CO)NC(=O)[C@H](Cc1c[nH]cn1)NC(=O)[C@H](CCCNC(=N)N)NC(=O)[C@H](CC(C)C)NC(=O)[C@H](Cc1ccccc1)NC(=O)[C@H](CC(N)=O)NC(=O)[C@H](C)NC(=O)[C@H](CC(C)C)NC(=O)[C@H](CCCNC(=N)N)NC(=O)[C@H](CCC(N)=O)NC(=O)[C@@H](NC(=O)[C@H](C)NC(=O)[C@@H]1CSSC[C@H](NC(=O)[C@@H](N)CCCCNC(=O)CC[C@H](NC(=O)CCCCCCCCCCCCCCCCCCC(=O)O)C(=O)O)C(=O)N[C@@H](CC(N)=O)C(=O)N[C@@H]([C@@H](C)O)C(=O)N[C@@H](C)C(=O)N[C@@H]([C@@H](C)O)C(=O)N1)[C@@H](C)O)C(=O)N1CCC[C@H]1C(=O)N[C@@H](CO)C(=O)N[C@@H](CO)C(=O)N[C@H](C(=O)N[C@@H](CC(N)=O)C(=O)N[C@H](C(=O)NCC(=O)N[C@@H](CCCNC(=N)N)C(=O)N[C@@H](CC(N)=O)C(=O)N[C@H](C(=O)N[C@@H](Cc1ccc(O)cc1)C(N)=O)[C@@H](C)O)C(C)C)[C@@H](C)O
notes: also called 79; compound 79

What follows are binders tested against T1, human amylin receptor (amylin 3(a) …) (assay: SPA displacement of 125I-rat amylin, hAmylin 3(a) receptor membranes).
How it was run: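 Cell membranes were prepared by homogenisation in Na-HEPES/EDTA buffer, pH 7.4, and stored at −80° C. They were then coupled to SPA beads at 35 ng/μL final and exposed to compounds in assay buffer containing CaCl2, MgCl₂, OA and Tween20. After 120 min at 25° C, plates were counted and IC₅₀ derived.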

Binder | IC50
B1 | 0.176 nM
B2 | 0.148 nM
B3 | 0.825 nM
B4 | 0.649 nM
B5 | 0.939 nM
B6 | 0.79 nM

— US20140087995A1 (published 2014)
